The data set can be described thus: collision cross section of modified peptide (TIMS, N2, iRT-aligned); higher = larger / more extended gas-phase ion. Put shortly:
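Values are averages of 1–3 technical replicates of the most abundant feature for each charge state. Collision cross section was obtained from the Mason-Schamp equation after 1/K0 calibration with three reference ions and run-wise alignment to the median iRT peptide deviation. Synthetic peptide pools (iRT standard spiked 1:40) were separated on a 120-min nanoflow C18 gradient at 60 °C, analysed on a timsTOF Pro/HT (dda-PASEF, nitrogen, ~2.4 mbar) and identified with MaxQuant.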

Where [1] appears, read: charge state: 2, modification: Formyl.
Where [2] appears, read: charge state: 3, modification: Formyl.
Setting [3] is: charge state: 3, modification: Methyl (R).
The mark [4] stands for this setting: charge state: 2, modification: Crotonyl.
[5] abbreviates: charge state: 2, modification: Malonyl.
Where [6] appears, read: charge state: 2, modification: GlyGly (K).
[7] abbreviates: charge state: 3, modification: GlyGly (K).
The mark [8] stands for this setting: charge state: 3, modification: Dimethyl (K).
Setting [9] is: charge state: 3, modification: Citrullination (R).
The mark [10] stands for this setting: charge state: 2, modification: Hydroxyproline.
[11] abbreviates: charge state: 2, modification: Glutarylation.
The mark [12] stands for this setting: charge state: 3, modification: Glutarylation.
[13] abbreviates: charge state: 2, modification: HexNAc (ST).
Where [14] appears, read: charge state: 2, modification: Succinyl.
[15] abbreviates: charge state: 3, modification: Succinyl.
Where [16] appears, read: charge state: 2, modification: Nitro (Y).
[17] abbreviates: charge state: 2, modification: Dimethyl (K).
[18] abbreviates: charge state: 2, modification: Butyryl.
The mark [19] stands for this setting: charge state: 3, modification: HexNAc (ST).
Setting [20] is: charge state: 2, modification: Citrullination (R).
The mark [21] stands for this setting: charge state: 2, modification: Biotin.
The mark [22] stands for this setting: charge state: 3, modification: Methyl (K).

± gives the standard deviation.

In turn, “AAQASDLEKIHLDEK [_AAQASDLEK(Formyl)IHLDEK_]” showed a collision cross section under setting [1] of 452.43 ± 0.71 Å² and a collision cross section under setting [2] of 490.12 ± 2.1 Å². Under setting [3], “FGRGTGLTQPSQR [_FGR(Methyl (R))GTGLTQPSQR_]” yielded a collision cross section of 470.4 ± 2.6 Å². In turn, VGTASVLQPVKK [_VGTASVLQPVK(Crotonyl)K_] displayed a collision cross section under setting [4] of 387.11 ± 0.8 Å². Turning to LTEKELAEAASK [_LTEK(Malonyl)ELAEAASK_], the collision cross section runs as follows: under setting [5], 390.08 ± 1.1 Å²; (charge state: 3, modification: Malonyl) 448.74 ± 2.2 Å². For the sequence “LEEVTGKLQVAR [_LEEVTGK(GlyGly (K))LQVAR_]”, the collision cross section under setting [6] worked out at 407.08 ± 0.86 Å² and the collision cross section under setting [7] is given as 463.74 ± 1.1 Å². Consider AGRGFSLEELR [_AGR(Methyl (R))GFSLEELR_], for which the collision cross section runs as follows: (charge state: 2, modification: Methyl (R)) 379.24 Å²; under setting [3], 460.11 ± 2.4 Å².

Turning to “YEQEHAAIQDKLFQVAK [_YEQEHAAIQDK(Dimethyl (K))LFQVAK_]”, the collision cross section under setting [8] is listed as 556.37 ± 0.79 Å². On to “VTRYPILGIPQAHR [_VTR(Citrullination (R))YPILGIPQAHR_]”, for which, under setting [9], the collision cross section was 520.51 ± 0.78 Å².

“GSLGAQKLANTCFNEIEK [_GSLGAQK(hydroxyisobutyryl)LANTCFNEIEK_]”: the collision cross section (charge state: 2, modification: hydroxyisobutyryl) worked out at 476.97 ± 0.8 Å². Consider GDAGEPGR [_GDAGEP(Hydroxyproline)GR_], for which the collision cross section under setting [10] was 292.85 ± 1.1 Å².

Consider “PSVGSQSNQAGQGKR [_PSVGSQSNQAGQGK(Gluratylation)R_]”, for which the collision cross section came to 412.64 ± 1.7 Å² under setting [11] and 479.06 ± 9.1 Å² under setting [12]. Regarding “DLSTVEALQNLKNLK [_DLSTVEALQNLK(Trimethyl (K))NLK_]”, the collision cross section is 478.82 ± 1.1 Å² (charge state: 2, modification: Trimethyl (K)) and 501.71 ± 2.5 Å² (charge state: 3, modification: Trimethyl (K)). As for DVFISAAER [_DVFIS(HexNAc (ST))AAER_], the collision cross section under setting [13] was determined as 363.87 Å². For the sequence “LQEKVESAQSEQK [_LQEK(Succinyl)VESAQSEQK_]”, the collision cross section is 417.9 ± 0.86 Å² under setting [14] and 502.42 ± 0.72 Å² under setting [15]. Turning to SLEEEGAAHSGKR [_SLEEEGAAHSGK(Formyl)R_], the collision cross section worked out at 409.43 ± 1.8 Å² under setting [1] and 472.26 ± 2.9 Å² under setting [2]. For LQIASDENYK [_LQIASDENY(Nitro (Y))K_], the collision cross section under setting [16] worked out at 364.55 ± 1.2 Å². Regarding “DDSFLGKLGGTLAR [_DDSFLGK(Dimethyl (K))LGGTLAR_]”, the collision cross section stood at 416.68 ± 0.75 Å² under setting [17] and 473.5 ± 1.2 Å² under setting [8]. In the case of “YIEIYVQKVNPSR [_YIEIYVQK(GlyGly (K))VNPSR_]”, the collision cross section amounted to 453.07 ± 1.4 Å² under setting [6] and 515.19 ± 0.35 Å² under setting [7]. As for “AAINQKLIETGER [_AAINQK(Gluratylation)LIETGER_]”, the collision cross section reads like this: under setting [11], 412.05 ± 1.1 Å²; under setting [12], 483.6 ± 2.4 Å². Turning to “TTGFYSGFSEVAEKR [_TTGFYSGFSEVAEK(Succinyl)R_]”, the collision cross section is listed as 441.9 ± 0.5 Å² under setting [14] and 512.39 ± 1.6 Å² under setting [15]. For the sequence “SNEEGSEEKGPEVR [_SNEEGSEEK(Crotonyl)GPEVR_]”, the collision cross section under setting [4] stood at 406.51 ± 0.28 Å². With “GADFLVTEVENGGSLGSKK [_GADFLVTEVENGGSLGSK(Acetyl (K))K_]”, the collision cross section is, setting by setting: (charge state: 2, modification: Acetyl (K)) 465.51 Å²; (charge state: 3, modification: Acetyl (K)) 541.97 Å². In the case of “IHNAENIQPGEQKYEYK [_IHNAENIQPGEQK(Formyl)YEYK_]”, under setting [2], the collision cross section was determined as 518.35 ± 1.3 Å². Take VNALKNLQVK [_VNALK(Butyryl)NLQVK_]: under setting [18], the collision cross section was 377.18 ± 0.8 Å². Consider “SLIGKVDGTSHVTGK [_SLIGKVDGTSHVT(HexNAc (ST))GK_]”, for which, under setting [19], the collision cross section was 501.68 ± 0.18 Å². In the case of “ESISVSSEQLAQFR [_ES(HexNAc (ST))ISVSSEQLAQFR_]”, the collision cross section under setting [13] amounted to 438.25 Å². As for “DSSPTTNSKLSALQR [_DSSPTTNSK(Dimethyl (K))LSALQR_]”, the collision cross section runs as follows: under setting [17], 423.14 ± 1.1 Å²; under setting [8], 472.53 ± 1.6 Å². Under setting [19], “SAGSVESPSVSSTHR [_SAGSVESPSVSST(HexNAc (ST))HR_]” showed a collision cross section of 473.17 ± 1.2 Å².

As for “VEPIHAVVLPRGK [_VEPIHAVVLPR(Citrullination (R))GK_]”, the collision cross section is on record as 406.23 ± 0.55 Å² under setting [20] and 492.34 ± 18 Å² under setting [9]. Turning to SEASSEFAKK [_SEASSEFAK(Biotin)K_], the collision cross section under setting [21] worked out at 374.33 Å². Under setting [22], “GSLGAQKLANTCFNEIEK [_GSLGAQK(Methyl (K))LANTCFNEIEK_]” came in with a collision cross section of 509.24 Å².

Take ALLQAKASGK [_ALLQAK(Formyl)ASGK_]: the collision cross section under setting [1] was 340.27 ± 0.87 Å². In the case of “YIEIYVQKVNPSR [_YIEIYVQK(Methyl (K))VNPSR_]”, the collision cross section reads like this: (charge state: 2, modification: Methyl (K)) 439.54 ± 1.7 Å²; under setting [22], 505.56 ± 3.7 Å². For the sequence “DDIIENAPTTHTEEYSGEEK [_DDIIENAPTTHTEEY(Nitro (Y))SGEEK_]”, the collision cross section (charge state: 3, modification: Nitro (Y)) was determined as 553.72 ± 2.2 Å². With DVNAAIAAIKTK [_DVNAAIAAIK(Biotin)TK_], the collision cross section under setting [21] is reported as 423.85 Å². Turning to “EEKPAVTAAPK [_EEKPAVT(HexNAc (ST))AAPK_]”, the collision cross section was determined as 383.27 ± 0.13 Å² under setting [13] and 484.12 ± 0.17 Å² under setting [19].

“TFGKAAGPSLSHTSGGTQSK [_TFGK(Gluratylation)AAGPSLSHTSGGTQSK_]” came in with a collision cross section under setting [12] of 518.15 ± 2 Å². Consider “TQAEGQGQGRGLGLVSAVR [_TQAEGQGQGR(Methyl (R))GLGLVSAVR_]”, for which the collision cross section under setting [3] was 510.91 ± 2 Å². Regarding VFSIISSEKELK [_VFSIISSEK(Succinyl)ELK_], under setting [14], the collision cross section is given as 409.2 ± 4.2 Å².

In the case of “GGFQNRGGGSGGGGNYR [_GGFQNR(Citrullination (R))GGGSGGGGNYR_]”, the collision cross section was determined as 403.21 ± 0.81 Å² under setting [20] and 503.84 Å² under setting [9].

As to LLEEEDSKLK [_LLEEEDSK(Dimethyl (K))LK_], the collision cross section is, setting by setting: under setting [17], 385.27 ± 0.26 Å²; under setting [8], 435.11 ± 2.1 Å². On to ITGKNQVTATK [_ITGK(GlyGly (K))NQVTATK_], for which the collision cross section is given as 373.22 ± 0.38 Å² under setting [6] and 442.8 ± 1.1 Å² under setting [7]. As to GETASKLQSEISR [_GETASK(Biotin)LQSEISR_], the collision cross section runs as follows: under setting [21], 422.42 ± 2 Å²; (charge state: 3, modification: Biotin) 475.24 ± 0.34 Å². Turning to VFSIISSEKELK [_VFSIISSEK(Malonyl)ELK_], the collision cross section under setting [5] was determined as 409.68 ± 0.66 Å². The sequence “DKALPLEAEVAPVK [_DK(Butyryl)ALPLEAEVAPVK_]” showed a collision cross section under setting [18] of 418.05 ± 4.9 Å². Under setting [13], “SQAGASELGPFSDPR [_SQAGASELGPFS(HexNAc (ST))DPR_]” displayed a collision cross section of 425.39 ± 1.3 Å². On to “VGEFSGANKEK [_VGEFSGANK(Dimethyl (K))EK_]”, for which the collision cross section under setting [17] was determined as 376.33 ± 1.2 Å² and the collision cross section under setting [8] is 440.62 ± 2.8 Å². Under setting [16], LDLSSLAYSGK [_LDLSSLAY(Nitro (Y))SGK_] yielded a collision cross section of 385.74 ± 0.17 Å². In turn, “GDQGEPGPSGNPGK [_GDQGEPGPSGNP(Hydroxyproline)GK_]” registered a collision cross section under setting [10] of 343.56 ± 0.79 Å².

The values are drawn from the supplement of paper PMC10598134.
